Source: IntAct's records for PubMed 24144979

B1: Zinc finger protein RFP (Homo sapiens), P14373 (parent)
chain: MASGSVAECLQQETTCPVCLQYFAEPMMLDCGHNICCACLARCWGTAETNVSCPQCRETFPQRHMRPNRHLANVTQLVKQLRTERPSGPGGEMGVCEKHREPLKLYCEEDQMPICVVCDRSREHRGHSVLPLEEAVEGFKEQIQNQLDHLKRVKDLKKRRRAQGEQARAELLSLTQMEREKIVWEFEQLYHSLKEHEYRLLARLEELDLAIYNSINGAITQFSCNISHLSSLIAQLEEKQQQPTRELLQDIGDTLSRAERIRIPEPWITPPDLQEKIHIFAQKCLFLTESLKQFTEKMQSDMEKIQELREAQLYSVDVTLDPDTAYPSLILSDNLRQVRYSYLQQDLPDNPERFNLFPCVLGSPCFIAGRHYWEVEVGDKAKWTIGVCEDSVCRKGGVTSAPQNGFWAVSLWYGKEYWALTSPMTALPLRTPLQRVGIFLDYDAGEVSFYNVTERCHTFTFSHATFCGPVRPYFSLSYSGGKSAAPLIICPMSGIDGFSGHVGNHGHSMETSP

Variants of: B1
Settings: with ubp7_human USP7, Q93009
Chain of ubp7_human USP7, Q93009 (Q93009 whole entry, looked up): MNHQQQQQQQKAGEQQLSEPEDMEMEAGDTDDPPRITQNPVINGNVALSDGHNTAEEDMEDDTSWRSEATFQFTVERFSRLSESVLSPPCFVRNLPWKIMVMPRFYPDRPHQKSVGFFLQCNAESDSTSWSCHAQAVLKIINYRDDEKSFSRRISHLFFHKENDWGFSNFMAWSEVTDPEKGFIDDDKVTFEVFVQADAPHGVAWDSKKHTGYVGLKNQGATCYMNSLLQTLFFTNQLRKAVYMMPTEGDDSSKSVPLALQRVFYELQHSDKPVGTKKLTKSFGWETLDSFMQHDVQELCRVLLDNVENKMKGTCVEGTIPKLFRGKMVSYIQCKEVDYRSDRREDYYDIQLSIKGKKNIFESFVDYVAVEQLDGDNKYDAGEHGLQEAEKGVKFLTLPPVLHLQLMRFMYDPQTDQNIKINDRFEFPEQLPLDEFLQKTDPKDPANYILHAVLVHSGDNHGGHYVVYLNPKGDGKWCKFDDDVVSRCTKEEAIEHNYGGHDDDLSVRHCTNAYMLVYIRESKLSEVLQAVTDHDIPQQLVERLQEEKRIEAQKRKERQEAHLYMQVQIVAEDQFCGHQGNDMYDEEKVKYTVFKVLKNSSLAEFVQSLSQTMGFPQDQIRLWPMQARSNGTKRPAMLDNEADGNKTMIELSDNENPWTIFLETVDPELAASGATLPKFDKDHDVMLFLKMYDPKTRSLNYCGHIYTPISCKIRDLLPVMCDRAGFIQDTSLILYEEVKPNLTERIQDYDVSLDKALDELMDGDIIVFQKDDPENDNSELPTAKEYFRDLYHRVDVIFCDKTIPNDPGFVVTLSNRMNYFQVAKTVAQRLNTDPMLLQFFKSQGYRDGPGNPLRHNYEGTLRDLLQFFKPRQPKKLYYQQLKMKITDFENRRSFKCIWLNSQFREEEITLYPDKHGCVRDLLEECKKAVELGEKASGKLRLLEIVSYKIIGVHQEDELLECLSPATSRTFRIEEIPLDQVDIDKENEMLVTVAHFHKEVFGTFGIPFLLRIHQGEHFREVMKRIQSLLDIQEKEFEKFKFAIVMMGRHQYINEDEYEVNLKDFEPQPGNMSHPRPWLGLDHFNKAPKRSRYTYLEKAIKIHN

Variant	effect of a mutation on the interaction
MASGSVAECLQQETTCPVCLQYFAEPMMLDCGHNICCACLARCWGTAETNVSCPQCRETFPQRHMRPNRHLANVTQLVKQLRTERPSGPGGEMGVCEKHREPLKLYCEEDQMPICVVADRSREARGHSVLPLEEAVEGFKEQIQNQLDHLKRVKDLKKRRRAQGEQARAELLSLTQMEREKIVWEFEQLYHSLKEHEYRLLARLEELDLAIYNSINGAITQFSCNISHLSSLIAQLEEKQQQPTRELLQDIGDTLSRAERIRIPEPWITPPDLQEKIHIFAQKCLFLTESLKQFTEKMQSDMEKIQELREAQLYSVDVTLDPDTAYPSLILSDNLRQVRYSYLQQDLPDNPERFNLFPCVLGSPCFIAGRHYWEVEVGDKAKWTIGVCEDSVCRKGGVTSAPQNGFWAVSLWYGKEYWALTSPMTALPLRTPLQRVGIFLDYDAGEVSFYNVTERCHTFTFSHATFCGPVRPYFSLSYSGGKSAAPLIICPMSGIDGFSGHVGNHGHSMETSP [C118A;H124A]	with no effect
MASGSVAECLQQETTCPVCLQYFAEPMMLDCGHNICCACLARCWGTAETNVSCPQCRETFPQRHMRPNRHLANVTQLVKQLRTERPSGPGGEMGVAEKAREPLKLYCEEDQMPICVVCDRSREHRGHSVLPLEEAVEGFKEQIQNQLDHLKRVKDLKKRRRAQGEQARAELLSLTQMEREKIVWEFEQLYHSLKEHEYRLLARLEELDLAIYNSINGAITQFSCNISHLSSLIAQLEEKQQQPTRELLQDIGDTLSRAERIRIPEPWITPPDLQEKIHIFAQKCLFLTESLKQFTEKMQSDMEKIQELREAQLYSVDVTLDPDTAYPSLILSDNLRQVRYSYLQQDLPDNPERFNLFPCVLGSPCFIAGRHYWEVEVGDKAKWTIGVCEDSVCRKGGVTSAPQNGFWAVSLWYGKEYWALTSPMTALPLRTPLQRVGIFLDYDAGEVSFYNVTERCHTFTFSHATFCGPVRPYFSLSYSGGKSAAPLIICPMSGIDGFSGHVGNHGHSMETSP [C96A;H99A]	with no effect
MASGSVAECLQQETTCPVCLQYFAEPMMLDCGHNICCACLARCWGTAETNVSCPQCRETFPQRHMRPNRHLANVTQLVRQLRTERPSGPGGEMGVCEKHREPLKLYCEEDQMPICVVCDRSREHRGHSVLPLEEAVEGFKEQIQNQLDHLKRVKDLKKRRRAQGEQARAELLSLTQMEREKIVWEFEQLYHSLKEHEYRLLARLEELDLAIYNSINGAITQFSCNISHLSSLIAQLEEKQQQPTRELLQDIGDTLSRAERIRIPEPWITPPDLQEKIHIFAQKCLFLTESLKQFTEKMQSDMERIQELREAQLYSVDVTLDPDTAYPSLILSDNLRQVRYSYLQQDLPDNPERFNLFPCVLGSPCFIAGRHYWEVEVGDRARWTIGVCEDSVCRKGGVTSAPQNGFWAVSLWYGKEYWALTSPMTALPLRTPLQRVGIFLDYDAGEVSFYNVTERCHTFTFSHATFCGPVRPYFSLSYSGGKSAAPLIICPMSGIDGFSGHVGNHGHSMETSP [K79R;K304R;K380R;K382R]	decreasing interaction strength

Variants of: B1
Settings: with ubp7_human USP7, Q93009
Remark: another data set of the same source

Variant	effect of a mutation on the interaction
MASGSVAECLQQETTCPVCLQYFAEPMMLDCGHNICCACLARCWGTAETNVSCPQCRETFPQRHMRPNRHLANVTQLVRQLRTERPSGPGGEMGVCEKHREPLKLYCEEDQMPICVVCDRSREHRGHSVLPLEEAVEGFKEQIQNQLDHLKRVKDLKKRRRAQGEQARAELLSLTQMEREKIVWEFEQLYHSLKEHEYRLLARLEELDLAIYNSINGAITQFSCNISHLSSLIAQLEEKQQQPTRELLQDIGDTLSRAERIRIPEPWITPPDLQEKIHIFAQKCLFLTESLKQFTEKMQSDMERIQELREAQLYSVDVTLDPDTAYPSLILSDNLRQVRYSYLQQDLPDNPERFNLFPCVLGSPCFIAGRHYWEVEVGDRARWTIGVCEDSVCRKGGVTSAPQNGFWAVSLWYGKEYWALTSPMTALPLRTPLQRVGIFLDYDAGEVSFYNVTERCHTFTFSHATFCGPVRPYFSLSYSGGKSAAPLIICPMSGIDGFSGHVGNHGHSMETSP [K79R;K304R;K380R;K382R]	disrupting interaction strength
